Assay results: patent US20250206836A1 (ONA THERAPEUTICS S L, published 2025)
Changes are numbered by the printed parent chain. In names and notes the source's numbering stands. One block for each binder: values may come before it.

Assays:
[1] = target: T1, human CD36 (on HEK 293 or SCC25 cells) (human, UniProt P16671 2-472); experiment: FACS, HEK 293 cells transiently overexpressing human CD36
T1 construct: Overexpressed transiently or stably on HEK 293 cells, or stably on SCC25 cells; also called huCD36
T1 sequence (P16671 2-472 limits assumed): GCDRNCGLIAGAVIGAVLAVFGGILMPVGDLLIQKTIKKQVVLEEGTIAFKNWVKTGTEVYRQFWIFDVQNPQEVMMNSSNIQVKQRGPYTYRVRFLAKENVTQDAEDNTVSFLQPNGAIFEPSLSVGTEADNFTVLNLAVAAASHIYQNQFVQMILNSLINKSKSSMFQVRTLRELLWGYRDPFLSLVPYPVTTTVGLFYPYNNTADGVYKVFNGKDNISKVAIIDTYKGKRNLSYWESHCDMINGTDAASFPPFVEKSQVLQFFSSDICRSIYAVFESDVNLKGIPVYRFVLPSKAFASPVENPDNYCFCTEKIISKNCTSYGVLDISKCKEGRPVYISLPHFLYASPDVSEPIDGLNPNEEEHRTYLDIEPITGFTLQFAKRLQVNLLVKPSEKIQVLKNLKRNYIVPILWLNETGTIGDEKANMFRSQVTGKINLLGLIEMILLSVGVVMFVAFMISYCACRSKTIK
Protocol: After incubation with the cells, an anti-human fluorescently labelled antibody was added to the cell media, allowed to incubate further, and the unbound antibody was washed off of the cells. Subsequently, the cells were subjected to FACS analysis to determine antibody binding to the cells. The results were fitted to a sigmoidal titration curve. Using a nonlinear regression model, the EC₅₀ values for each antibody were calculated from the GeoMFI and MFI values using the log(agonist) versus response (four parameters) fitting on the data transformed according to X=Log[X] in GraphPad PRISM.
After transiently transfecting the HEK 293 cells with a CD36 expression construct, cells were treated with three-fold serial dilution of each candidate antibody (10 dilutions starting at 500 nM). […] Antibody binding to cells was measured by FACS as above.

[2] = target: T1, human CD36 (on HEK 293 or SCC25 cells); experiment: cell-based or functional assay
[3] = target: T1, human CD36 (on HEK 293 or SCC25 cells); experiment: cell-based or functional assay; remark: listed apart in the source
[4] = target: T1, human CD36 (on HEK 293 or SCC25 cells); experiment: FACS, HEK 293 cells transiently overexpressing CD36;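 note: antibody binding to transfected cells detected by flow cytometry with a fluorescent anti-human secondary antibody, EC50 from a four-parameter sigmoidal fit of mean fluorescence intensity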
[5] = target: T2, nonhuman primate CD36 (on HEK 293 cells) (cynomolgus monkey / rhesus macaque, UniProt P16671 2-472 (human entry)); experiment: as above
T2 construct: also called non-human primate CD36 (cynomolgus)
T2 sequence (P16671 other isoform, or with tags, fused parts or gaps limits assumed): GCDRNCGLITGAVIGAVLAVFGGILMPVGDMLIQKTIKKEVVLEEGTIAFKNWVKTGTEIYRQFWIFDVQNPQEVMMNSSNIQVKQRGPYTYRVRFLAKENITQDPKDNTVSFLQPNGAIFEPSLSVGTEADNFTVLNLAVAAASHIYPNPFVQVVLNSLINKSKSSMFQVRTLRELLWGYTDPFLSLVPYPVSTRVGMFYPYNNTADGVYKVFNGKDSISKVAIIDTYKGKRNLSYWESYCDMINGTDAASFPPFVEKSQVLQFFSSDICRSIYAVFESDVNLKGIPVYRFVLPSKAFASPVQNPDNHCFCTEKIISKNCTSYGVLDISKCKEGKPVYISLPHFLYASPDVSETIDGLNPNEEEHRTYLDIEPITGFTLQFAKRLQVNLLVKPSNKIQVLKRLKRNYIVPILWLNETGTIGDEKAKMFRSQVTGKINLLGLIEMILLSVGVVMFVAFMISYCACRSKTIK

[6] = target: T3, mouse CD36 (on HEK 293 cells) (mouse, UniProt Q08857 1-472); experiment: as above
T3 construct: also called Murine CD36
T3 sequence (Q08857 whole entry): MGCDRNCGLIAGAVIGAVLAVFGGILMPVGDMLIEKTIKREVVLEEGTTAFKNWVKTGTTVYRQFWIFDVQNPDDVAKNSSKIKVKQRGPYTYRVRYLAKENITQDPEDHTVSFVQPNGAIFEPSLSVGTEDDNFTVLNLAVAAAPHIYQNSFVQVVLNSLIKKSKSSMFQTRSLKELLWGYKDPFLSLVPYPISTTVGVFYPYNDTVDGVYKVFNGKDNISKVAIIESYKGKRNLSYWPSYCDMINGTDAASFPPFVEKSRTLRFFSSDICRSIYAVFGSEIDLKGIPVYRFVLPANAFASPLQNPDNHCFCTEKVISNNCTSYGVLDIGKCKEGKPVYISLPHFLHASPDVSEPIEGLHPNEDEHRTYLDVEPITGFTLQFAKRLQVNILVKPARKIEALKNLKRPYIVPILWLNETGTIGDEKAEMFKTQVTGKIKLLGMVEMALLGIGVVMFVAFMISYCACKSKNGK

[7] = target: T4, purified biotin-tagged human CD36 (human, UniProt P16671 30-439, limits assumed, biotin tag, site not stated); experiment: AlphaScreen competition; competitor 1G04 on acceptor beads;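 note: streptavidin donor beads excited at 680 nm release singlet oxygen, and the light signal needs a nearby acceptor bead, with 30 min donor-bead incubation at 25 °C in the dark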
T4 sequence (P16671 30-439 limits assumed): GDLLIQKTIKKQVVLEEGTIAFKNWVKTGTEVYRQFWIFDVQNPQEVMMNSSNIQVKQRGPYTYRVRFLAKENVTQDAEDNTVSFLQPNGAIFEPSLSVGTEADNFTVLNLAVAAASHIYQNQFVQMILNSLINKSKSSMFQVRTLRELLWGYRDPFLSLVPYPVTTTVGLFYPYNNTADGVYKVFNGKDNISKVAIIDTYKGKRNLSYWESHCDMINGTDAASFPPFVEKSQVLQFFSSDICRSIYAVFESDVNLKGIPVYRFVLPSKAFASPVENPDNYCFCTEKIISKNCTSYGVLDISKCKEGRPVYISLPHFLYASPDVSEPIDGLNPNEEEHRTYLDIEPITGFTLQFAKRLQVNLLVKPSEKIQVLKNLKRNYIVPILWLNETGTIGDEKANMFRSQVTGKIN

[8] = target: T4, purified biotin-tagged human CD36; experiment: AlphaScreen competition; competitor 11G04 on acceptor beads
Protocol: This was done using the AlphaScreen® bead-based microplate assay. […] AlphaLISA® Streptavidin Donor Beads were then added and the mix incubated for 30 min at 25° C. in the dark. The donor bead contains a photosensitizer, which upon excitation by light at 680 nm, converts oxygen (O₂) into an excited form, singlet oxygen. Singlet oxygen molecules have a reduced lifetime (4 microseconds half-life) and can diffuse approximately 200 nm in solution before falling back to ground state. In the absence of acceptor beads, the singlet oxygen molecules fall back to ground state without producing any light signal.

[9] = target: T1, human CD36 (on HEK 293 or SCC25 cells); experiment: cell-based or functional assay; remark: listed apart in the source
[10] = target: T1, human CD36 (on HEK 293 or SCC25 cells); experiment: FACS, SCC25 cells stably overexpressing human CD36
Protocol: After transiently transfecting the HEK 293 cells with a CD36 expression construct, cells were treated with three-fold serial dilution of each candidate antibody (10 dilutions starting at 500 nM). […] After incubation with the cells, an anti-human fluorescently labelled antibody was added to the cell media, allowed to incubate further, and the unbound antibody was washed off of the cells. Subsequently, the cells were subjected to FACS analysis to determine antibody binding to the cells. The results were fitted to a sigmoidal titration curve. Using a nonlinear regression model, the EC₅₀ values for each antibody were calculated from the GeoMFI and MFI values using the log(agonist) versus response (four parameters) fitting on the data transformed according to X=Log[X] in GraphPad PRISM.

[11] = target: T5, human CD36 (His-tagged) (human, UniProt P16671 30-439); experiment: SPR (Biacore T200), His-captured CD36, bivalent analyte model
T5 construct: not shown: His tag
T5 sequence (P16671 30-439 limits assumed): as above
Throughout, for Percent Fatty Acid Uptake Inhibition: test concentration or dose not given here.

EC50 [1]: 0.87 nM
B1: 73G06 (antibody, human IgG1, kappa)
heavy: EVQLVQSGAEVKKPGSSVKVSCKASGYRFSDYEMQWVRQAPGQGLEWMGGIDPETGGIAYAQKFQGRVTLTADKSTSTAYMELSSLRSEDTAVYYCTRKLDFDYWGQGTLVTVSSASTKGPSVFPLAPSSKSTSGGTAALGCLVKDYFPEPVTVSWNSGALTSGVHTFPAVLQSSGLYSLSSVVTVPSSSLGTQTYICNVNHKPSNTKVDKKVEPKSCDKTHTCPPCPAPESTRGPSVFLFPPKPKDTLYITREPEVTCVVVDVSHEDPEVKFNWYVDGVEVHNAKTKPREEQYNSTYRVVSVLTVLHQDWLNGKEYKCKVSNKALPAPIEKTISKAKGQPREPQVYTLPPSRDELTKNQVSLTCLVKGFYPSDIAVEWESNGQPENNYKTTPPVLDSDGSFFLYSKLTVDKSRWQQGNVFSCSVMHEALHNHYTQKSLSLSPGK
light: ETTVTQSPAFMSATTGDKVTISCITSTDIDDDMNWYQQKPGEPPKLLISEGNTLRPGVPSRFSSSGYGTDFTFTINNIESEDAAYYYCLQSDNLPLTFGQGTKLEIKRTVAAPSVFIFPPSDEQLKSGTASVVCLLNNFYPREAKVQWKVDNALQSGNSQESVTEQDSKDSTYSLSSTLTLSKADYEKHKVYACEVTHQGLSSPVTKSFNRGEC
notes: Humanized 11G04, human IgG1 STR

EC50 [1]: 0.81 nM
B2: 77G06 (antibody, human IgG1, kappa)
heavy: B1 heavy
light: B1 light with N52S
notes: as for B1

EC50 [1]: 1.1 nM
B3: 74G06 (antibody, human IgG1, kappa)
heavy: B1 heavy with E1Q
light: B1 light
notes: as for B1

EC50 [1]: 0.65 nM
B4: 80G06 (antibody, human IgG1, kappa)
heavy: B1 heavy with E1Q
light: B1 light with T15P, N52S
notes: as for B1

EC50 [1]: 1.15 nM
B5: 78G06 (antibody, human IgG1, kappa)
heavy: B1 heavy with E1Q
light: B1 light with N52S
notes: as for B1

EC50 [1]: 0.65 nM
B6: 79G06 (antibody, human IgG1, kappa)
heavy: B1 heavy
light: B1 light with T15P, N52S
notes: as for B1

EC50 [1]: 0.88 nM
B7: 76G06 (antibody, human IgG1, kappa)
heavy: B1 heavy with E1Q
light: B1 light with T15P
notes: as for B1

EC50 [1]: 0.98 nM
B8: 75G06 (antibody, human IgG1, kappa)
heavy: B1 heavy
light: B1 light with T15P
notes: as for B1

IC50 of fatty acid uptake inhibition (BODIPY FL C16, HEK hCD36 cells) [2]: 0.18 nM | IC50 of oxLDL uptake inhibition (DiI-oxLDL, SCC25 cells) [3]: 0.35 nM | EC50 [4]: 0.35 nM | EC50 [5]: 0.33 nM | EC50 [6]: 0.69 nM | EC50 [7]: 1.45 nM | EC50 [8]: 1.05 nM
B9: 38G04 (antibody, human IgG1, V domains shown)
VH: AVTLDESGGGLQTPGRALSLVCKASGFTFSSYNMFWVRQAPGKGLEWVAGIDDDGSFTLYGAAVKGRATISRDNGQSTVRLQLNNLRAEDTGTYYCARDSGAVSIDAWGHGTEVIVSS
VL: ALTQPSSVSANPGETVKITCSGGDSDYGWYQQKSPGSAPVTVIYQNDKRPSDIPSRFSGSASGSTATFTITGVQAEDEAVYYCGGWDGSYDGAVFGAGTTLTVL
notes: Chimeric: chicken variable regions on human IgG1 LALA (L234A/L235A); also called 038G04

IC50 of fatty acid uptake inhibition (BODIPY FL C16, HEK hCD36 cells) [2]: 0.81 nM | IC50 of oxLDL uptake inhibition (DiI-oxLDL, SCC25 cells) [3]: 0.09 nM | EC50 [4]: 0.33 nM | EC50 [5]: 0.29 nM | EC50 [6]: 0.66 nM | EC50 [7]: 0.57 nM | EC50 [8]: 1.04 nM
B10: 36G04 (antibody, human IgG1, V domains shown)
VH: AVTLDESGGGLQTPGGALSLVCKASGFIFSSYGMGWVRQAPGKGLEYIAAISNDGSKADYGAAVKGRATISRDNGQSTVRLQLNNLRAEDTATYYCAKSADTGYCSWSACIADSIDAWGHGTEVIVSS
VL: ALTQPSSVSAIPGETVKITCSGGGSDYGWYQQKSPGSAPVTVIYWSDNRPSNIPSRFSGSESGSTATLTITGVRAEDEAVYFCGGYDSSGSGMFGAGTTLTVL
notes: Chimeric: chicken variable regions on human IgG1 LALA (L234A/L235A); also called 036G04

IC50 of fatty acid uptake inhibition (BODIPY FL C16, HEK hCD36 cells) [2]: 0.1 nM | IC50 of oxLDL uptake inhibition (DiI-oxLDL, SCC25 cells) [3]: 0.28 nM | EC50 [4]: 0.31 nM | EC50 [5]: 0.52 nM | EC50 [6]: 4.33 nM | EC50 [7]: 1.58 nM | EC50 [8]: 3.68 nM
B11: 33G04 (antibody, human IgG1, V domains shown)
VH: AVTLDESGGGLQTPGGALSLVCKASGFDFSSYAMGWVRQAPGKGLEWVAGKAKDGGGTAYGSAVKGRATISRDNGQSTVRLQLSNLRAEDTGVYYCAKSAYGDWFYGSSGPYADSIDAWGHGTEVIVSS
VL: ALTQPSSVSASPGETVKITCSGSSDSWYGWYQQKSPGSALVTVIYDSTNRPSSIPSRFSGSTSGSTGTLTITGVRADDEAVYFCGSFDSSTDSTAFGAGTTLTVL
notes: Chimeric: chicken variable regions on human IgG1 LALA (L234A/L235A); also called 033G04

IC50 of fatty acid uptake inhibition (BODIPY FL C16, HEK hCD36 cells) [2]: 0.2 nM | IC50 of oxLDL uptake inhibition (DiI-oxLDL, SCC25 cells) [3]: 1.06 nM | EC50 [4]: 0.56 nM | EC50 [5]: 1.4 nM | EC50 [6]: 6.75 nM | EC50 [7]: 2.47 nM | EC50 [8]: 4.82 nM
B12: 34G04 (antibody, human IgG1, V domains shown)
VH: B11 VH
VL: ALTQPSSVSANPGETVKITCSGGDNYAGSYYYGWYQQKSPGSAPVTVIYDDTNRPADIPSRFSGSTSGSTNTLTITGVRAEDEAVYFCGGWDSINDRNIFGAGTTLTVL
notes: Chimeric: chicken variable regions on human IgG1 LALA (L234A/L235A); also called 034G04

IC50 of fatty acid uptake inhibition (BODIPY FL C16, HEK hCD36 cells) [2]: 0.3 nM | IC50 of oxLDL uptake inhibition (DiI-oxLDL, SCC25 cells) [3]: 1.14 nM | EC50 [4]: 0.62 nM | EC50 [5]: 1.45 nM | EC50 [6]: 2.29 nM | EC50 [7]: 9.91 nM | EC50 [8]: 3.3 nM
B13: 37G04 (antibody, human IgG1, V domains shown)
VH: AVTLDESGGGLQTPGGALSLVCKASGFTFSDYDMLWVRQAPGKGLEFVAGINAASTYTDYGAAVKGRATISRDNGQSTVRLQVNNLRAEDTGTYYCAKSSYGGGWSDVGSIDAWGHGTEVIVSS
VL: ALTQPSSVSANPGETVKITCSGDRSYYGYGWYQQKAPGSAPVTVIYWDDKRPSDIPSRFSGSTSGSTATLTITGVQAEDEAVYFCGNMDSSYVGMFGAGTTLTVL
notes: Chimeric: chicken variable regions on human IgG1 LALA (L234A/L235A); also called 037G04

IC50 of fatty acid uptake inhibition (BODIPY FL C16, HEK hCD36 cells) [2]: 0.04 nM | IC50 of oxLDL uptake inhibition (DiI-oxLDL, SCC25 cells) [3]: 0.11 nM | EC50 [4]: 0.63 nM | EC50 [5]: 0.59 nM | EC50 [6]: 2.25 nM | EC50 [7]: 0.66 nM | EC50 [8]: 1.35 nM
B14: 35G04 (antibody, human IgG1, V domains shown)
VH: AVTLDESGGGLQTPGGALSLVCKASGFTFSNYGMGWMRQAPGKGLEFVAKIYKDGGYTGYGAAVDGRATISRDDGQSTVRLQLNDLRAEDTATYFCAKAADSGYLYITDSIDAWGHGTEVIVSS
VL: ALTQPSSVSANPGETVKITCSGGSGSYGWFQQKSPGNAPVTVIYHNDQRPSDIPSRFSGSKSGSTATLTITEVQADDEAVYVCGGYDNDNDAGIFGAGTTLTVL
notes: Chimeric: chicken variable regions on human IgG1 LALA (L234A/L235A); also called 035G04

Percent Fatty Acid Uptake Inhibition [9]: 53.3% | IC50 of fatty acid uptake inhibition (BODIPY FL C16, HEK hCD36 cells) [2]: 0.05 nM | EC50 [10]: 0.75 nM | EC50 [4]: 1.92 nM | EC50 [5]: 5.45 nM | EC50 [6]: 22.5 nM | EC50 [8]: 5.23 nM
B15: 19G04 (antibody, human IgG1, V domains shown)
VH: EVQLQQSGPELVKPGASVKISCETSGHTFTEYTMHWVKQSHGKSLEWIGGIYPNNGATKYNQKFKGKATLTVDKSSSTAYMELRSLTSEDSAVYYCARDRYDVWFAYWGQGTLVTVSA
VL: ETTVTQSPASLSMAIGEKVTIRCITSTDIDDDMNWYQQKPGEPPKLLISEGNTLRPGVPSRFSSSGYGTDFIFTIENMLSEDVADYYCLQSDNLPLTFGAGTKLELK
notes: Chimeric: mouse variable regions on human IgG1 LALA (L234A/L235A); also called 019G04

Percent Fatty Acid Uptake Inhibition [9]: 43.5% | IC50 of fatty acid uptake inhibition (BODIPY FL C16, HEK hCD36 cells) [2]: 0.8 nM | EC50 [10]: 0.22 nM | EC50 [4]: 0.32 nM | EC50 [5]: 1.63 nM | EC50 [6]: 0.96 nM | EC50 [8]: 0.65 nM
B16: 30G04 (antibody, human IgG1, V domains shown)
VH: EVQLVESGGGVVQPGESLKLSCESNEYEFPSHDMSWVRKTPERRLELVAAINSDGAITYYPDTMERRFIISRDNTKKTLYLQMSSLKSEDTAMYYCARHGQTGTWFAYWGQGTLVTVSA
VL: B15 VL with I72V
notes: Chimeric: mouse variable regions on human IgG1 LALA (L234A/L235A); also called 030G04

Percent Fatty Acid Uptake Inhibition [9]: 41.6% | IC50 of fatty acid uptake inhibition (BODIPY FL C16, HEK hCD36 cells) [2]: 0.07 nM | IC50 of oxLDL uptake inhibition (DiI-oxLDL, SCC25 cells) [3]: 1.17 nM | EC50 [10]: 0.46 nM | EC50 [4]: 0.45 nM | EC50 [5]: 8.93 nM | EC50 [6]: 11.2 nM | EC50 [1]: 0.49 nM | Kd [11]: 19 nM | koff [11]: 0.022 s⁻¹ | kon [11]: 1.2e+06 M⁻¹ s⁻¹
B17: 11G04 (antibody, human IgG1, V domains shown)
VH: EVQLQQSGAELVRPGASVTLSCKASGYRFSDYEMQWVKQTPVHGLEWIGGIDPETGGIAYNQKFKVKATLTADKSSSTAFMELRSLTSEDSAVYYCTRKLDFDYWGQGTTLTVSS
VL: B15 VL with M13V, I15T, I72V
notes: Chimeric: mouse variable regions on human IgG1 LALA (L234A/L235A); also called 011G04
